Assay results published in paper PMC4223078.
Residue numbers refer to the chain shown, from its start.

Assays:
Test in all cases: EMSA
Conditions in all cases: 10 nM DNA in 15 mM HEPES pH 7.9, 40 mM KCl, 1 mM EDTA, 0.5% DTT, 5% glycerol, 30 min (incubation temperature not stated); 6% native PAGE in TAE at 4 C, SYBR …
[1] = target: T1, StpA A77D A77D (Salmonella enterica serovar Typhimurium 14028s) (UniProt A0A0F6B5K2)
T1 sequence: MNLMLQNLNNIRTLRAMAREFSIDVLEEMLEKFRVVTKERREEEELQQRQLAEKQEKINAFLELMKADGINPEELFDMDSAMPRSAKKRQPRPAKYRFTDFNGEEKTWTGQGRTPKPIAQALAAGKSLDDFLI

[2] = target: T2, StpA WT (Salmonella enterica serovar Typhimurium 14028s) (UniProt A0A0F6B5K2)
T2 sequence: T1 sequence with D77A

[3] = target: T3, StpA T37I T37I (Salmonella enterica serovar Typhimurium 14028s) (UniProt A0A0F6B5K2)
T3 sequence: T1 sequence with T37I, D77A

[4] = target: T4, H-NS (6His) (Salmonella enterica serovar Typhimurium 14028s?) (UniProt A0A0F6B244)
T4 sequence: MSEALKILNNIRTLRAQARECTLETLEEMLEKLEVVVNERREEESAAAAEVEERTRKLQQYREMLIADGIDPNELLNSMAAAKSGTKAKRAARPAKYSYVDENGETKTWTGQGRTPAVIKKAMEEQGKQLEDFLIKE

[5] = target: T5, StpA M4T M4T (Salmonella enterica serovar Typhimurium 14028s) (UniProt A0A0F6B5K2)
T5 sequence: T1 sequence with M4T, D77A

Measured: binding

CTCTCTCTGCACCAGGATATACGGCAGCGTCCATTCGATAATCACAGTTAGTTATAACAATATTATTACCAACATGTCAGTTATTTAAAGCACAGGCATAAGCTAAATAATCAAATGTTAAAAACATATAAACCCGAGCCCGTAGAATATGACATTAAGCTCATAATAAAAGCTCAACCTGACCGTTAGTACTAACAGCAGAATTACTGAAACAGTAGATTCTATCCTAACGACTTGTATTAGTTATTATAACTTTTCACCCTGTAAGAGAATACACTATTATCATGCC (double strand) [hilA 289 bp fragment]
binds: all assays above
